Measured values taken from patent US20170088600A1 (published 2017).
Changes are numbered by the printed parent chain. Names may count otherwise. Read-outs that look alike come from different tables or passages of the source.

Columns and labels:
Assay in all cases: SPR
[1] = target: T1, TRAIL-R2-Fc M152A/R154A/K155A (human, UniProt O14763 58-184)
T1 chain: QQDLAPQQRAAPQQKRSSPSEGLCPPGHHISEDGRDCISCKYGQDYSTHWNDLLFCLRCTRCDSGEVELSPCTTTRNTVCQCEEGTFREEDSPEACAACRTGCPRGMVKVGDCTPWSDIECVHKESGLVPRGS

UL141 [2] = target: UL141
UL141 [3] = target: UL141; remark: listed apart in the source
UL141 [4] = target: UL141; remark: listed apart in the source
UL141 [5] = target: UL141; remark: listed apart in the source

B1: TRAIL (TNFSF10) ectodomain (ligand)
chain: TNELKQMQDKYSKSGIACFLKEDDSYWDPNDEESMNSPCWQVKWQLRQLVRKMILRTSEETISTVQEKQQNISPLVRERGPQRVAAHITGTRGRSNTLSSPNSKNEKALGRKINSWESSRSGHSFLSNLHLRNGELVIHEKGFYYIYSQTYFRFQEEIKENTKNDKQMVQYIYKYTSYPDPILLMKSARNSCWSKDAEYGLYSIYQGGIFELKENDRIFVSVTNEHLIDMDHEASFFGAFLVG
Kd [1]: 7 nM

B2: TRAIL-R2-Fc F112A (Fc fusion)
chain: T1 chain with F55A, A95M, A97R, A98K
Kd (UL141 [2]): 630 nM

B3: TRAIL-R2-Fc L110A/L114A (Fc fusion)
chain: T1 chain with L53A, L57A, A95M, A97R, A98K
Kd (UL141 [2]): 43 nM

B4: TRAIL-R2-Fc E78A/D109A (Fc fusion)
chain: T1 chain with E21A, D52A, A95M, A97R, A98K
Kd (UL141 [3]): 60 nM

B5: TRAIL-R2-Fc P150A (Fc fusion)
chain: T1 chain with P93A, A95M, A97R, A98K
Kd (UL141 [2]): 8 nM

B6: TRAIL-R2-Fc K155A (Fc fusion)
chain: T1 chain with A95M, A97R
Kd (UL141 [4]): 8 nM

B7: TRAIL-R2-Fc D148A (Fc fusion)
chain: T1 chain with D91A, A95M, A97R, A98K
Kd (UL141 [2]): 55 nM

B8: TRAIL-R2-Fc R154A (Fc fusion)
chain: T1 chain with A95M, A98K
Kd (UL141 [4]): 6 nM

B9: TRAIL-R2-Fc M152A (Fc fusion)
chain: T1 chain with A97R, A98K
Kd (UL141 [4]): 7 nM

B10: TRAIL-R2-Fc (human TRAIL-R2 aa 58-184, thrombin site, human IgG1 Fc), wild type (Fc fusion)
chain: T1 chain with A95M, A97R, A98K
Kd (UL141 [2]): 6 nM | Kd (UL141 [5]): 5.96 nM

B11: TRAIL-R2-Fc V167A (Fc fusion)
chain: T1 chain with A95M, A97R, A98K, V110A
Kd (UL141 [2]): 15 nM
